Experimental data as given in doi:10.1101/2023.08.10.552581.

Experiments:
[1] = target: PAR-2 RING domain (C. elegans); experiment: AUC
[2] = target: PAR-2 RING domain (C. elegans); experiment: SEC-MALS

- Kd [1]: 358 nM
- stoichiometry N [2]: 2
Substance: PAR-2 RING domain (domain or fragment)
